Consider 1 molecule from US20200109211A1.

This assay deals with human CD160 (CD160 GPI isoform) on cells (human) (UniProt O95971). As to the kind of experiment: flow cytometry, percentage of labelled YT2C2 NK cells, 0.39-50 nM; the text means weaker binding.
Sequence of human CD160 (CD160 GPI isoform) on cells (human) (O95971 25-159 limits assumed): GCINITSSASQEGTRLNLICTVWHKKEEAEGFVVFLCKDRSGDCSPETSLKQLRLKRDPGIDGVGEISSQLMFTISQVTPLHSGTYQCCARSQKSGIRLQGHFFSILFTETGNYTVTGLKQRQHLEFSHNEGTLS

B1: Fab CH1 IgG1 D12 (Fab)
heavy: QVQLVQSGAEVKKPGASVKVSCKASGYTFSDFWMQWIRQAPGQGLEWIGAIYPGDDDARVTQKFRGRATLTADKSTSTAYMELSSLRSEDTAVYYCARRGIAAVVGGFDYWGQGTTLTVSSASTKGPSVFPLAPSSKSTSGGTAALGCLVKDYFPEPVTVSWNSGALTSGVHTFPAVLQSSGLYSLSSVVTVPSSSLGTQTYICNVNHKPSNTKVDKRV
light: EIVLTQSPATLSLSPGERATLSCRASQSISNHLHWYQQKPGQAPRLLIKYASQSISGIPARFSGSGSGTDFTLTISSLEPEDFAVYFCQQSNSWPLTFGGGTKVEIKRTVAAPSVFIFPPSDEQLKSGTASVVCLLNNFYPREAKVQWKVDNALQSGNSQESVTEQDSKDSTYSLSSTLTLSKADYEKHKVYACEVTHQGLSSPVTKSFNRGEC
In the case of B1, the EC50, factor against H7 IgG4 (ELB01101) turned out to be 2 fold.
